In patent publication US20190284258A1, “HAEMADIPSA SYLVESTRIS ANTITHROMBOTIC PEPTIDE SYLVESTIN AND USE THEREOF” (priority 2016, published 2019):

Target: FXIIa
Assay: enzyme inhibition kinetics, chromogenic substrate, OD 405 nm

Chain of FXIIa (P00748 20-372, chain 1 of 2): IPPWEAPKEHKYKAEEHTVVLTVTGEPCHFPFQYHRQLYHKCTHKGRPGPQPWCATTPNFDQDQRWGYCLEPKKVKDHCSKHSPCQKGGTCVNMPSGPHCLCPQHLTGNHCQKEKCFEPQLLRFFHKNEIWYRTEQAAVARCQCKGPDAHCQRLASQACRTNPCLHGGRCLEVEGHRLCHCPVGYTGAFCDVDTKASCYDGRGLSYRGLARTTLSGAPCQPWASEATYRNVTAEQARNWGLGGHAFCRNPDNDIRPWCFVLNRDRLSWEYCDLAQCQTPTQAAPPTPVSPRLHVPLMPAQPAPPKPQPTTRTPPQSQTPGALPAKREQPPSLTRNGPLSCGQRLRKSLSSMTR
Chain of FXIIa (P00748 373-615, chain 2 of 2): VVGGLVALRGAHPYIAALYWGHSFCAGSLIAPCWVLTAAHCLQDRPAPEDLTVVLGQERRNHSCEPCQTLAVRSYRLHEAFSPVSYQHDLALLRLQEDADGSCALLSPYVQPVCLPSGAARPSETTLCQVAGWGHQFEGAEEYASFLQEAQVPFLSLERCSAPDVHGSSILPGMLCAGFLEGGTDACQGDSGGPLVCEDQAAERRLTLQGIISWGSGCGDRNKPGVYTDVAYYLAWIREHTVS

Ki: 2900 nM
Substance: Haemadipsa sylvestris antithrombotic peptide Sylvestin
